The results in this text go back to patent US20230391828A1, “REGULATORS OF CELL DIVISION” (TECHNISCHE UNIVERSITÄT DRESDEN, priority 2020, published 2023).

“Also recorded” adds a separate entry of the source. Bridge positions count the residues as written; N and C are the ends. Square brackets hold non-standard residues; d marks the D form. 2Nal = N[C@@H](Cc1ccc2ccccc2c1)C(=O)O; R8 = C=CCCCCCC[C@@](C)(N)C(=O)O; S5 = C=CCCC[C@](C)(N)C(=O)O

Test [1] deals with APC/C. The test is described as follows: Ubiquitinated securin (Mean ± SD). To be noted: 100 µM. From the text:
Table printed on a drawing sheet, Figure 6
Head of the field: Ubiquitinated securin (Mean ± SD)

In test [2] the target is T1, APC/C (Homo sapiens, UniProt Q9NYG5).
T1 construct: made in house; host or cells: SF9 insect cells (baculovirus)
The test is described as follows: In vitro APC/C ubiquitination assay driven by the E2 enzyme UBE2C, fluorophore-labelled securin substrate. In kind it is biochemical. Particulars: 100 μM, UBE2C, reaction time 45 min; for inhibition of APC/C activity in vitro compared with TAME: 3 independent assays. The method, then: Proteins were separated by SDS-PAGE electrophoresis using precast Bolt 4-12% Bis-Tris Plus protein gels (Thermo Fisher Scientific) and Criterion XT Bis-Tris Midi Protein Gels (Bio-Rad). In different experiments, various conditions were used: in vitro APC/C ubiquitination assays—165 V, 40 min, SDS-MES running buffer (50 mM MES, 50 mM Tris base, 0.1% SDS, 1 mM EDTA, pH 7.3; Thermo Fisher Scientific); in vitro APC/C ubiquitination assays determining KM—165V, 1 h, SDS-MOPS running buffer (50 mM MOPS, 50 mM Tris base, 0.1% SDS, 1 mM EDTA, pH 7.7; Thermo Fisher Scientific); pull-down binding assay—165 V, 35 min, SDS-MES running buffer.
APC/C-dependent ubiquitination reactions were performed at 30° C. in 30 mM HEPES pH 7.4, 175 mM NaCl, 8 mM MgCl2, 0.05% Tween-20, 1 mM DTT and 5% glycerol and contained 20 nM recombinant APC/C (note, for testing the first generation of inhibitors, APC/C and Cdc20 immunoprecipitated from mitotic HeLa K cells was used), 340 nM Cdc20, 46 nM GST-UBA1, 340 nM UBE2C (alternatively 400 nM UBE2D1, 280 nM UBE2S), 21 μM His6-ubiquitin or if it is indicated 21 μM methylated-ubiquitin (BostonBiochem), 2.6 mM ATP, 10 mM phosphocreatine and 11 μM creatine kinase. As substrates, 35 nM fluorophore-labeled ubiquitin-cyclin B and 50 nM fluorophore-labeled securin were standardly used (fluorophore IRDye 800CW (LI-COR) was used for labelling). In case of KM and kcat determination, 50, 100, 250, 500, 750, 1000, 1250, 2500 and 5000 nM fluorophore-labelled securin was used. The reaction was done in the volume of 15 μl, it was quenched after the indicated time with LDS sample buffer (Thermo Fisher Scientific) supplemented with 100 mM DTT and subjected to SDS-PAGE. Detection of fluorescently labelled substrates was done by quantitative near-infrared scanning system Odyssey.

In the case of “Ac-cyclo(5,9)-RWPQXKWDXQVRRW-NH2 (Ac-RWPQ[S5]KWD[S5]QVRRW-NH2; staple 5-9; SMILES CC(=O)N[C@@H](CCCNC(=N)N)C(=O)N[C@@H](Cc1c[nH]c2ccccc12)C(=O)N1CCC[C@H]1C(=O)N[C@@H](CCC(N)=O)C(=O)N[C@@]1(C)CCCC=CCCC[C@@](C)(C(=O)N[C@@H](CCC(N)=O)C(=O)N[C@H](C(=O)N[C@@H](CCCNC(=N)N)C(=O)N[C@@H](CCCNC(=N)N)C(=O)N[C@@H](Cc2c[nH]c3ccccc23)C(N)=O)C(C)C)NC(=O)[C@H](CC(=O)O)NC(=O)[C@H](Cc2c[nH]c3ccccc23)NC(=O)[C@H](CCCCN)NC1=O) [G3-1]”, in the test on APC/C [1], the “Ubiquitinated securin (Mean ± SD)” value is given as 15.7 ± 8%. Consider “Ac-cyclo(4,11)-EWWZKLEIQRXRRA-NH2 (Ac-EWW[R8]KLEIQR[S5]RRA-NH2; staple 4-11; SMILES CC[C@H](C)[C@@H]1NC(=O)[C@H](CCC(=O)O)NC(=O)[C@H](CC(C)C)NC(=O)[C@H](CCCCN)NC(=O)[C@](C)(NC(=O)[C@H](Cc2c[nH]c3ccccc23)NC(=O)[C@H](Cc2c[nH]c3ccccc23)NC(=O)[C@H](CCC(=O)O)NC(C)=O)CCCCCCC=CCCC[C@@](C)(C(=O)N[C@@H](CCCNC(=N)N)C(=O)N[C@@H](CCCNC(=N)N)C(=O)N[C@@H](C)C(N)=O)NC(=O)[C@H](CCCNC(=N)N)NC(=O)[C@H](CCC(N)=O)NC1=O) [G3-4] [listing 1 of 2 here]”, for which the “inhibition of APC/C activity in vitro compared with TAME” value with APC/C [2] is “inhibit APC/C in vitro more efficiently than TAME”.

Take “Ac-cyclo(3,13)-THCDDPETWRWNCQRV-NH2 (Ac-THCDDPETWRWNCQRV-NH2; disulfide 3-13; SMILES CC(=O)N[C@H](C(=O)N[C@@H](Cc1c[nH]cn1)C(=O)N[C@H]1CSSC[C@@H](C(=O)N[C@@H](CCC(N)=O)C(=O)N[C@@H](CCCNC(=N)N)C(=O)N[C@H](C(N)=O)C(C)C)NC(=O)[C@H](CC(N)=O)NC(=O)[C@H](Cc2c[nH]c3ccccc23)NC(=O)[C@H](CCCNC(=N)N)NC(=O)[C@H](Cc2c[nH]c3ccccc23)NC(=O)[C@H]([C@@H](C)O)NC(=O)[C@H](CCC(=O)O)NC(=O)[C@@H]2CCCN2C(=O)[C@H](CC(=O)O)NC(=O)[C@H](CC(=O)O)NC1=O)[C@@H](C)O) [G1-7]”: in the test with APC/C [2], the “inhibition of APC/C activity in vitro (ubiquitinated securin)” value (“inhibition … (ubiquitinated securin)” below) is recorded as “the most potent”. As to “Ac-cyclo(5,9)-RWPQXIKDXQVRWW-NH2 (Ac-RWPQ[S5]IKD[S5]QVRWW-NH2; staple 5-9; SMILES CC[C@H](C)[C@@H]1NC(=O)[C@@](C)(NC(=O)[C@H](CCC(N)=O)NC(=O)[C@@H]2CCCN2C(=O)[C@H](Cc2c[nH]c3ccccc23)NC(=O)[C@H](CCCNC(=N)N)NC(C)=O)CCCC=CCCC[C@@](C)(C(=O)N[C@@H](CCC(N)=O)C(=O)N[C@H](C(=O)N[C@@H](CCCNC(=N)N)C(=O)N[C@@H](Cc2c[nH]c3ccccc23)C(=O)N[C@@H](Cc2c[nH]c3ccccc23)C(N)=O)C(C)C)NC(=O)[C@H](CC(=O)O)NC(=O)[C@H](CCCCN)NC1=O) [G3-3] [listing 1 of 2 here]”, in the test with APC/C [2], the “inhibition of APC/C activity in vitro compared with TAME” value was “inhibit APC/C in vitro more efficiently than TAME”. “cyclo(1,14)-[L 2-NaI L W K l E W E K R K p P] (cyclo(L[2Nal]LWK[dL]EWEKRK[dP]P); SMILES CC(C)C[C@@H]1NC(=O)[C@H](Cc2ccc3ccccc3c2)NC(=O)[C@H](CC(C)C)NC(=O)[C@@H]2CCCN2C(=O)[C@H]2CCCN2C(=O)[C@H](CCCCN)NC(=O)[C@H](CCCNC(=N)N)NC(=O)[C@H](CCCCN)NC(=O)[C@H](CCC(=O)O)NC(=O)[C@H](Cc2c[nH]c3ccccc23)NC(=O)[C@H](CCC(=O)O)NC(=O)[C@@H](CC(C)C)NC(=O)[C@H](CCCCN)NC(=O)[C@H](Cc2c[nH]c3ccccc23)NC1=O) [G2-4]”: the “inhibition … (ubiquitinated securin)” value with APC/C [2] is “the most potent”. For the substance “Ac-cyclo(4,11)-EWWZKLELQRXRRA-NH2 (Ac-EWW[R8]KLELQR[S5]RRA-NH2; staple 4-11; SMILES CC(=O)N[C@@H](CCC(=O)O)C(=O)N[C@@H](Cc1c[nH]c2ccccc12)C(=O)N[C@@H](Cc1c[nH]c2ccccc12)C(=O)N[C@]1(C)CCCCCCC=CCCC[C@@](C)(C(=O)N[C@@H](CCCNC(=N)N)C(=O)N[C@@H](CCCNC(=N)N)C(=O)N[C@@H](C)C(N)=O)NC(=O)[C@H](CCCNC(=N)N)NC(=O)[C@H](CCC(N)=O)NC(=O)[C@H](CC(C)C)NC(=O)[C@H](CCC(=O)O)NC(=O)[C@H](CC(C)C)NC(=O)[C@H](CCCCN)NC1=O) [G3-5]”, the “Ubiquitinated securin (Mean ± SD)” value in the test on APC/C [1] was 6.1 ± 7%. On the same count and under the same terms, under “Ac-cyclo(5,9)-RWPQXIKDXQVRWW-NH2 (Ac-RWPQ[S5]IKD[S5]QVRWW-NH2; staple 5-9; SMILES CC[C@H](C)[C@@H]1NC(=O)[C@@](C)(NC(=O)[C@H](CCC(N)=O)NC(=O)[C@@H]2CCCN2C(=O)[C@H](Cc2c[nH]c3ccccc23)NC(=O)[C@H](CCCNC(=N)N)NC(C)=O)CCCC=CCCC[C@@](C)(C(=O)N[C@@H](CCC(N)=O)C(=O)N[C@H](C(=O)N[C@@H](CCCNC(=N)N)C(=O)N[C@@H](Cc2c[nH]c3ccccc23)C(=O)N[C@@H](Cc2c[nH]c3ccccc23)C(N)=O)C(C)C)NC(=O)[C@H](CC(=O)O)NC(=O)[C@H](CCCCN)NC1=O) [G3-3] [listing 2 of 2 here]” stands 5.1 ± 6%. On to “cyclo(1,14)-[T F L W K W E W T K R K p P] (cyclo(TFLWKWEWTKRK[dP]P); SMILES CC(C)C[C@@H]1NC(=O)[C@H](Cc2ccccc2)NC(=O)[C@H]([C@@H](C)O)NC(=O)[C@@H]2CCCN2C(=O)[C@H]2CCCN2C(=O)[C@H](CCCCN)NC(=O)[C@H](CCCNC(=N)N)NC(=O)[C@H](CCCCN)NC(=O)[C@H]([C@@H](C)O)NC(=O)[C@H](Cc2c[nH]c3ccccc23)NC(=O)[C@H](CCC(=O)O)NC(=O)[C@H](Cc2c[nH]c3ccccc23)NC(=O)[C@H](CCCCN)NC(=O)[C@H](Cc2c[nH]c3ccccc23)NC1=O) [G2-8]”, for which the “inhibition … (ubiquitinated securin)” value in the test with APC/C [2] was “inhibit APC/C in vitro the most effectively compared to other molecules of item (f)”. Regarding “Ac-cyclo(4,11)-EWWZKLEIQRXRRA-NH2 (Ac-EWW[R8]KLEIQR[S5]RRA-NH2; staple 4-11; SMILES CC[C@H](C)[C@@H]1NC(=O)[C@H](CCC(=O)O)NC(=O)[C@H](CC(C)C)NC(=O)[C@H](CCCCN)NC(=O)[C@](C)(NC(=O)[C@H](Cc2c[nH]c3ccccc23)NC(=O)[C@H](Cc2c[nH]c3ccccc23)NC(=O)[C@H](CCC(=O)O)NC(C)=O)CCCCCCC=CCCC[C@@](C)(C(=O)N[C@@H](CCCNC(=N)N)C(=O)N[C@@H](CCCNC(=N)N)C(=O)N[C@@H](C)C(N)=O)NC(=O)[C@H](CCCNC(=N)N)NC(=O)[C@H](CCC(N)=O)NC1=O) [G3-4] [listing 2 of 2 here]”, the “Ubiquitinated securin (Mean ± SD)” value in the test on APC/C [1] was 4.5 ± 7%. As to “Ac-cyclo(2,11)-RCHWGPRTFWCR—NH2 (Ac-RCHWGPRTFWCR-NH2; disulfide 2-11; SMILES CC(=O)N[C@@H](CCCNC(=N)N)C(=O)N[C@H]1CSSC[C@@H](C(=O)N[C@@H](CCCNC(=N)N)C(N)=O)NC(=O)[C@H](Cc2c[nH]c3ccccc23)NC(=O)[C@H](Cc2ccccc2)NC(=O)[C@H]([C@@H](C)O)NC(=O)[C@H](CCCNC(=N)N)NC(=O)[C@@H]2CCCN2C(=O)CNC(=O)[C@H](Cc2c[nH]c3ccccc23)NC(=O)[C@H](Cc2c[nH]cn2)NC1=O) [G1-3]”, the “inhibition … (ubiquitinated securin)” value with APC/C [2] is on record as “the most potent molecule from items (b)-(e); also recorded: the most potent molecule from item (b)”.
